Measured values as given in paper PMC3088709, “Phosphorylation of the Yeast γ-Tubulin Tub4 Regulates Microtubule Function” (PLoS ONE, 2011).

B1: Tub4 (yeast gamma-tubulin), wild type, untagged [S. cerevisiae] / Spc110 [S. cerevisiae (endogenous in yeast cells)] (parent)
chain 1: MGGEIITLQAGQCGNHVGKFLWSQLAKEHAIGTDGLSQLPDSSTERDDDTKPFFRENSRNKFTPRAIMMDSEPSVIADVENTFRGFFDPRNTWVASDGASAGNSWANGYDIGTRNQDDILNKIDKEIDSTDNFEGFQLLHSVAGGTGSGLGSNLLEALCDRYPKKILTTYSVFPARSSEVVVQSYNTILALRRLIEDSDATVVFDNASLLNISGKVFRNPNIDLQHTNQLISTIISSVTNSIRFPSYMYSSMSSIYSTLIPSPELHFLSPSFTPFTSDYIHDDIAHKGHSSYDVMLDLLDPSNSLVSTAMNNPTYFNVYNTIIGNVEPRQISRAMTKLQQRIKFPSWSSSAMHVNIGRRSPYLPLQPNENEVSGMMLSNMSTVVNVFENACNTFDKVFAKGAFLNNYNVGDLFQSMQNVQDEFAESREVVQSLMEDYVAAEQDSYLDDVLVDDENMVGELEEDLDADGDHKLV
chain 2: MDEASHLPNGSLKNMEFTPVGFIKSKRNTTQTQVVSPTKVPNANNGDENEGPVKKRQRRSIDDTIDSTRLFSEASQFDDSFPEIKANIPPSPRSGNVDKSRKRNLIDDLKKDVPMSQPLKEQEVREHQMKKERFDRALESKLLGKRHITYANSDISNKELYINEIKSLKHEIKELRKEKNDTLNNYDTLEEETDDLKNRLQALEKELDAKNKIVNSRKVDDHSGCIEEREQMERKLAELERKLKTVKDQVLELENNSDVQSLKLRSKEDELKNLMNELNELKSNAEEKDTQLEFKKNELRKRTNELNELKIKSDEMDLQLKQKQNESKRLKDELNELETKFSENGSQSSAKENELKMLKNKIAELEEEISTKNSQLIAKEGKLASLMAQLTQLESKLNQRDSQLGSREEELKKTNDKLQKDIRIAREETVSKDERIIDLQKKVKQLENDLFVIKKTHSESKTITDNELESKDKLIKILENDLKVAQEKYSKMEKELKEREFNYKISESKLEDEKTTLNEKISNLAAENSQLKNKIEDNSTATHHMKENYEKQLESLRKDIEEYKESAKDSEDKIEELKIRIAENSAKVSEKRSKDIKQKDEQISDLTQNLKLQEDEISSLKSIIDRYKKDFNQLKSEQSNIQHDLNLQILNLENKLIESEDELKSLRDSQKIEIENWKRKYNNLSLENDRLLTEKESASDKEREISILNRKLDEMDKEKWNLQESKEKYKRELQKVITANDRLRREKEELNENSNNIRIMEDKMTRIKKNYLSEITSLQEENRRLEERLILNERRKDNDSTMQLNDIISYYKLKYHSEVRHNNDLKVINDYLNKVLALGTRRLRLDTRKGEHSLNISLPDDDELDRDYYNSHVYTRYHDYEYPLRFNLNRRGPYFERRLSFKTVALLVLACVRMKRIAFYRRSDDNRLRILRDRIESSSGRISW

Variants of: B1
Experiment: co-immunoprecipitation (anti-HA IP of Spc97-3HA), quantified immunoblot
Conditions: with Spc110 [S. cerevisiae (endogenous in yeast cells)], Indirect: Spc110 recovered in Spc97-3HA IP from tub4-S360D cells, TUB4-AID SPC97-3HA cells, IAA for 2 h at 30°C, normalized to precipitated Spc97-3HA, read off a plot

Row | ratio to parent [RI] | Variant
1 | 0.28 | chain 1 MGGEIITLQAGQCGNHVGKFLWSQLAKEHAIGTDGLSQLPDSSTERDDDTKPFFRENSRNKFTPRAIMMDSEPSVIADVENTFRGFFDPRNTWVASDGASAGNSWANGYDIGTRNQDDILNKIDKEIDSTDNFEGFQLLHSVAGGTGSGLGSNLLEALCDRYPKKILTTYSVFPARSSEVVVQSYNTILALRRLIEDSDATVVFDNASLLNISGKVFRNPNIDLQHTNQLISTIISSVTNSIRFPSYMYSSMSSIYSTLIPSPELHFLSPSFTPFTSDYIHDDIAHKGHSSYDVMLDLLDPSNSLVSTAMNNPTYFNVYNTIIGNVEPRQISRAMTKLQQRIKFPSWSSSAMHVNIGRRDPYLPLQPNENEVSGMMLSNMSTVVNVFENACNTFDKVFAKGAFLNNYNVGDLFQSMQNVQDEFAESREVVQSLMEDYVAAEQDSYLDDVLVDDENMVGELEEDLDADGDHKLV [chain 1 S360D]

Same assay, conditions: with Spc110 [S. cerevisiae (endogenous in yeast cells)], Indirect: Spc110 recovered in Spc97-3HA IP from tub4-S100E cells, TUB4-AID SPC97-3HA cells, IAA for 2 h at 30°C, normalized to precipitated Spc97-3HA, read off a plot

Row | ratio to parent [RI] | Variant
2 | 0.76 | chain 1 MGGEIITLQAGQCGNHVGKFLWSQLAKEHAIGTDGLSQLPDSSTERDDDTKPFFRENSRNKFTPRAIMMDSEPSVIADVENTFRGFFDPRNTWVASDGAEAGNSWANGYDIGTRNQDDILNKIDKEIDSTDNFEGFQLLHSVAGGTGSGLGSNLLEALCDRYPKKILTTYSVFPARSSEVVVQSYNTILALRRLIEDSDATVVFDNASLLNISGKVFRNPNIDLQHTNQLISTIISSVTNSIRFPSYMYSSMSSIYSTLIPSPELHFLSPSFTPFTSDYIHDDIAHKGHSSYDVMLDLLDPSNSLVSTAMNNPTYFNVYNTIIGNVEPRQISRAMTKLQQRIKFPSWSSSAMHVNIGRRSPYLPLQPNENEVSGMMLSNMSTVVNVFENACNTFDKVFAKGAFLNNYNVGDLFQSMQNVQDEFAESREVVQSLMEDYVAAEQDSYLDDVLVDDENMVGELEEDLDADGDHKLV [chain 1 S100E]

Same assay, conditions: with Spc110 [S. cerevisiae (endogenous in yeast cells)]; Indirect: Spc110 recovered in Spc97-3HA IP from tub4-S74E cells; TUB4-AID SPC97-3HA cells, IAA for 2 h at 30°C; normalized to precipitated Spc97-3HA; parent: 1; read off a plot

Row | ratio to parent [RI] | Variant
3 | 1.3 | chain 1 MGGEIITLQAGQCGNHVGKFLWSQLAKEHAIGTDGLSQLPDSSTERDDDTKPFFRENSRNKFTPRAIMMDSEPEVIADVENTFRGFFDPRNTWVASDGASAGNSWANGYDIGTRNQDDILNKIDKEIDSTDNFEGFQLLHSVAGGTGSGLGSNLLEALCDRYPKKILTTYSVFPARSSEVVVQSYNTILALRRLIEDSDATVVFDNASLLNISGKVFRNPNIDLQHTNQLISTIISSVTNSIRFPSYMYSSMSSIYSTLIPSPELHFLSPSFTPFTSDYIHDDIAHKGHSSYDVMLDLLDPSNSLVSTAMNNPTYFNVYNTIIGNVEPRQISRAMTKLQQRIKFPSWSSSAMHVNIGRRSPYLPLQPNENEVSGMMLSNMSTVVNVFENACNTFDKVFAKGAFLNNYNVGDLFQSMQNVQDEFAESREVVQSLMEDYVAAEQDSYLDDVLVDDENMVGELEEDLDADGDHKLV [chain 1 S74E]
